The results in this text go back to US20210101998A1.

Read-outs that look alike come from different tables or passages of the source.

The target in test [1] is endogenous TFPI in human plasma (human), P10646. The test is described as follows: cell-based or functional assay.
The target is the same in test [2]. The test is described as follows: cell-based or functional assay. This is another data set of the same source.

B1: 7A4.D9 (antibody, mouse IgG1, kappa)
light: DIVLTQSPASLAVSLGQRATISCRASKSVSTSGYTYMHWYQQKPGQPPKLLIYLASNLESGVPARFSGSGSGTDFTLNIHPVEEEDAAAYYCQHIRELPFTFGSGTKLEIKADAAPTVSIFPPSSEQLTSGGASVVCFLNNFYPKDINVKWKIDGSERQNGVLNSWTDQDSKDSTYSMSSTLTLTKDEYERHNSYTCEATHKTSTSPIVKSFNRNEC
heavy: EVQLQQSGPELVKPGASVKMSCKASGYTFTSYVMHWVKQKPGQGLEWIGYLNPYNDGTKYNEKFKGKASLISDKSSSTVYMELSSLTSEDSAVYYCATTLLYAMDYWGQGSSVTVSSAKTTPPSVYPLAPGSAAQTNSMVTLGCLVKGYFPEPVTVTWNSGSLSSGVHTFPAVLQSDLYTLSSSVTVPSSTWPSETVTCNVAHPASSTKVDKKIVPRDCGCKPCICTVPEVSSVFIFPPKPKDVLTITLTPKVTCVVVDISKDDPEVQFSWFVDDVEVHTAQTQPREEQFNSTFRSVSELPIMHQDWLNGKEFKCRVNSAAFPAPIEKTISKTKGRPKAPQVYTIPPPKEQMAKDKVSLTCMITDFFPEDITVEWQWNGQPAENYKNTQPIMDTDGSYFVYSKLNVQKSNWEAGNTFTCSVLHEGLHNHHTEKSLSHSPGK
In test [1], B1 had a TGA Velocity Index at 20 nM of 23.3.

B2: TFPI-24 (antibody, human IgG1, lambda)
light: not shown
heavy: EVQLVESGGGSVQPGRSLRLSCAVSGLTIDNYAMQWVRQRPGKGLEWVSGISGNSRSIGYADSVKGRLTISRDNAKNSLYLQIDSLRADDTALYYCAIFLHESDYWGQGTLVTVSSASTKGPSVFPLAPSSKSTSGGTAALGCLVKDYFPEPVTVSWNSGALTSGVHTFPAVLQSSGLYSLSSVVTVPSSSLGTQTYICNVNHKPSNTKVDKKVEPKSCDKTHTCPPCPAPEAAGAPSVFLFPPKPKDTLMISRTPEVTCVVVDVSHEDPEVKFNWYVDGVEVHNAKTKPREEQYNSTYRVVSVLTVLHQDWLNGKEYKCKVSNKALPAPIEKTISKAKGQPREPQVYTLPPSREEMTKNQVSLTCLVKGFYPSDIAVEWESNGQPENNYKTTPPVLDSDGSFFLYSKLTVDKSRWQQGNVFSCSVMHEALHNHYTQKSLSLSPG
Take B2: in test [2], the TGA Velocity Index at 20 nM worked out at 23.2 and the dilute prothrombin time EC50 was 0.57 nM.

B3: TFPI-118 (antibody, human IgG1, lambda)
light: not shown
heavy: EVQLVESGGGLVQPGRSLRLSCAVSGLTIDNYAMQWVRQAPGKGLEWVSGISGNSRSIGYADSVKGRFTISRDNAKNSLYLQMNSLRAEDTALYYCAIFLHESDYWGQGTLVTVSSASTKGPSVFPLAPSSKSTSGGTAALGCLVKDYFPEPVTVSWNSGALTSGVHTFPAVLQSSGLYSLSSVVTVPSSSLGTQTYICNVNHKPSNTKVDKKVEPKSCDKTHTCPPCPAPEAAGAPSVFLFPPKPKDTLMISRTPEVTCVVVDVSHEDPEVKFNWYVDGVEVHNAKTKPREEQYNSTYRVVSVLTVLHQDWLNGKEYKCKVSNKALPAPIEKTISKAKGQPREPQVYTLPPSREEMTKNQVSLTCLVKGFYPSDIAVEWESNGQPENNYKTTPPVLDSDGSFFLYSKLTVDKSRWQQGNVFSCSVMHEALHNHYTQKSLSLSPG
In the case of B3, in test [2], the Dilute PT EC50 stood at 1.16 nM, the TGA Velocity EC50 came to 7.72 nM and the dilute prothrombin time EC50 came to 1.16 nM.

B4: 4D8.b1 (antibody, mouse IgG1, kappa)
light: DIVMTQSHKFMSTSVGDRVSITCKASQDVHTAVAWYQQKPGQSPRLLIYWASTRHTGVPDRFTGCGSGTDYTLTISSVQAEDLALYYCQQHYTTPYTFGGGTKLEMKADAAPTVSIFPPSSEQLTSGGASVVCFLNNFYPKDINVKWKIDGSERQNGVLNSWTDQDSKDSTYSMSSTLTLTKDEYERHNSYTCEATHKTSTSPIVKSFNRNEC
heavy: EVLLQQSGPELVKPGASVKIPCKASGYTFTDYNLDWVKQSHGKSLEWIGDINPINGATLYNQKFKGKATLTVDQSSSTAYMELRSLTSEDTAVYYCSIYYGDYDAMDYWGQGASVTVSSAKTTPPSVYPLAPGSAAQTNSMVTLGCLVKGYFPEPVTVTWNSGSLSSGVHTFPAVLQSDLYTLSSSVTVPSSTWPSETVTCNVAHPASSTKVDKKIVPRDCGCKPCICTVPEVSSVFIFPPKPKDVLTITLTPKVTCVVVDISKDDPEVQFSWFVDDVEVHTAQTQPREEQFNSTFRSVSELPIMHQDWLNGKEFKCRVNSAAFPAPIEKTISKTKGRPKAPQVYTIPPPKEQMAKDKVSLTCMITDFFPEDITVEWQWNGQPAENYKNTQPIMDTDGSYFVYSKLNVQKSNWEAGNTFTCSVLHEGLHNHHTEKSLSHSPGK
For B4, the TGA Velocity Index at 20 nM in test [1] is 26.3; in test [2] it was 13.5.

B5: 6B7.c5 (antibody, mouse IgG1, kappa)
light: DIVMTQSHKFMSTSVGDRVSITCKASQDVITAVAWYQQKPGQSPKLLIYWASTRHTGVPVRFTGSGSGTDYTLTIISVQAEDLALYYCQQHYSTPYTFGGGTKLEIKADAAPTVSIFPPSSEQLTSGGASVVCFLNNFYPKDINVKWKIDGSERQNGVLNSWTDQDSKDSTYSMSSTLTLTKDEYERHNSYTCEATHKTSTSPIVKSFNRNEC
heavy: EVLLQQSGPELVKPGSSVKIPCKASGYTFTDYTMDWVKQSHGKSLEWIGDINPSNGGSIYNRKFKGKATLTVDKSSSTAYMELRSLTSEDTAVYYCARMHYNYDGFPYWGQGTLVTVSAAKTTPPSVYPLAPGSAAQTNSMVTLGCLVKGYFPEPVTVTWNSGSLSSGVHTFPAVLQSDLYTLSSSVTVPSSTWPSETVTCNVAHPASSTKVDKKIVPRDCGCKPCICTVPEVSSVFIFPPKPKDVLTITLTPKVTCVVVDISKDDPEVQFSWFVDDVEVHTAQTQPREEQFNSTFRSVSELPIMHQDWLNGKEFKCRVNSAAFPAPIEKTISKTKGRPKAPQVYTIPPPKEQMAKDKVSLTCMITDFFPEDITVEWQWNGQPAENYKNTQPIMDTDGSYFVYSKLNVQKSNWEAGNTFTCSVLHEGLHNHHTEKSLSHSPGK
In test [1], B5 showed a TGA Velocity Index at 20 nM of 23.5.

B6: 2A8-200 (antibody, human IgG1, lambda)
light: DIELTQPPSVSVAPGQTARISCSGDNLRNYYAHWYQQKPGQAPVVVIFYDVNRPSGIPERFSGSNSGNTATLTISGTQAEDEADYYCQSWWDGVPVFGGGTKLTVLGQPKAAPSVTLFPPSSEELQANKATLVCLISDFYPGAVTVAWKADSSPVKAGVETTTPSKQSNNKYAASSYLSLTPEQWKSHRSYSCQVTHEGSTVEKTVAPTECS
heavy: QVQLVESGGGLVQPGGSLRLSCAASGFTFRSYGMDWVRQAPGKGLEWVSSIRGSRSSTYYADSVKGRFTISRDNSKNTLYLQMNSLRAEDTAVYYCARLYRYWFDYWGQGTLVTVSSASTKGPSVFPLAPSSKSTSGGTAALGCLVKDYFPEPVTVSWNSGALTSGVHTFPAVLQSSGLYSLSSVVTVPSSSLGTQTYICNVNHKPSNTKVDKKVEPKSCDKTHTCPPCPAPEAAGAPSVFLFPPKPKDTLMISRTPEVTCVVVDVSHEDPEVKFNWYVDGVEVHNAKTKPREEQYNSTYRVVSVLTVLHQDWLNGKEYKCKVSNKALPAPIEKTISKAKGQPREPQVYTLPPSREEMTKNQVSLTCLVKGFYPSDIAVEWESNGQPENNYKTTPPVLDSDGSFFLYSKLTVDKSRWQQGNVFSCSVMHEALHNHYTQKSLSLSPG
Consider B6, for which the Dilute PT EC50 in test [2] turned out to be 1 nM.

B7: hz4D8 (antibody, human IgG1, kappa)
light: DIQMTQSPSSLSASVGDRVTITCKASQDVHTAVAWYQQKPGKAPKLLIYWASTRHTGVPSRFSGSGSGTDYTLTISSLQPEDFATYYCQQHYTTPYTFGQGTKLEIKRTVAAPSVFIFPPSDEQLKSGTASVVCLLNNFYPREAKVQWKVDNALQSGNSQESVTEQDSKDSTYSLSSTLTLSKADYEKHKVYACEVTHQGLSSPVTKSFNRGEC
heavy: EVQLVESGGGLVQPGGSLRLSCAASGYTFTDYNLDWVRQAPGKGLEWVADINPINGATLYNQKFKGRFTISRDQAKNSLYLQMNSLRAEDTAVYYCARYYGDYDAMDYWGQGTLVTVSSASTKGPSVFPLAPSSKSTSGGTAALGCLVKDYFPEPVTVSWNSGALTSGVHTFPAVLQSSGLYSLSSVVTVPSSSLGTQTYICNVNHKPSNTKVDKKVEPKSCDKTHTCPPCPAPEAAGAPSVFLFPPKPKDTLMISRTPEVTCVVVDVSHEDPEVKFNWYVDGVEVHNAKTKPREEQYNSTYRVVSVLTVLHQDWLNGKEYKCKVSNKALPAPIEKTISKAKGQPREPQVYTLPPSREEMTKNQVSLTCLVKGFYPSDIAVEWESNGQPENNYKTTPPVLDSDGSFFLYSKLTVDKSRWQQGNVFSCSVMHEALHNHYTQKSLSLSPG
In test [2], B7 registered a Dilute PT EC50 of 0.47 nM, a TGA Velocity EC50 of 3.9 nM, a TGA Velocity Index at 20 nM of 15.7 and a dilute prothrombin time EC50 of 0.47 nM.
